This note sets out measurements from patent US20230279138A1 (CHIA TAI TIANQING PHARMACEUTICAL GROUP, published 2023).

Test [1] addresses T1, CD20 on Raji cells (CD20+/CD3- cells) (human, UniProt P11836 1-297).
T1 sequence (looked up): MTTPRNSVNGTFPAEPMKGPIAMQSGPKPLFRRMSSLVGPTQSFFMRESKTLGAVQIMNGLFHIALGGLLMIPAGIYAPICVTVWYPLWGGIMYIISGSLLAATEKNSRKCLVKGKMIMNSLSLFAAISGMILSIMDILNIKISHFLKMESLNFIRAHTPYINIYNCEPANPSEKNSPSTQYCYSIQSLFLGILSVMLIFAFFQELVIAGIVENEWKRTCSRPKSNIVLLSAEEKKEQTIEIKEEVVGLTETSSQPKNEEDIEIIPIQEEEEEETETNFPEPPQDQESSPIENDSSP
Briefly: cell-based or functional assay.

In test [2] the target is T1, CD20 on Raji cells (CD20+/CD3- cells). Briefly: FACS on Raji cells after 14 days at 37 C in human serum. Here is the method:
(§1) After incubation, the cells were washed twice with cold 1% BSA/1×PBS. […] After being washed twice, the geometric mean fluorescence (MFI) of the stained cells was measured using a FACS Canto II […] (BD Biosciences). Wells containing no antibody or containing only fluorescent secondary antibody were used to establish background fluorescence. The EC50 values for cell binding were determined using GraphPad Prism 5 software (GraphPad Software, La Jolla, Calif.); each value was calculated by four-parameter non-linear regression analysis.
(§2) The antibody was mixed with freshly collected human serum and the proportion of serum in the mixture sample was ensured to be >95%. The mixture sample was aliquoted and incubated at 37° C. for 0-14 days. […] The bindings of each sample to Raji or Jurkat cells was analyzed by FACS.

Test [3] has the same target. Put plainly: cell-based or functional assay. This is another data set of the same source.
Test [4] has the same target. Put plainly: cell-based or functional assay. The source holds these as a separate data set.
For test [5], the target named is T2, CD3 on Jurkat cells (CD3+/CD20- cells) (human, UniProt P07766 23-207; P04234 22-171; P09693 23-182).
T2 construct: whole, on cells; also called Jurkat 2B8
Put plainly: flow cytometry on Jurkat 2B8 cells (CD3+/CD20-). The protocol: as §1
(A flow cytometer gives signals particle by particle.)

Test [6] concerns the target T1, CD20 on Raji cells (CD20+/CD3- cells). Briefly: cell-based or functional assay. This is another data set of the same source.
For test [7] the target is unchanged. Briefly: FACS on Raji cells after 0, 1, 4 or 7 days at 37 C in human serum. Here is the method: as §1, §2
The target of test [8] is T2, CD3 on Jurkat cells (CD3+/CD20- cells). Briefly: cell-based or functional assay.
Test [9] addresses T1, CD20 on Raji cells (CD20+/CD3- cells). Briefly: flow cytometry on Raji cells (CD20+/CD3-). Here is the method: as §1

T2 sequence (P07766 23-207, chain 1 of 3): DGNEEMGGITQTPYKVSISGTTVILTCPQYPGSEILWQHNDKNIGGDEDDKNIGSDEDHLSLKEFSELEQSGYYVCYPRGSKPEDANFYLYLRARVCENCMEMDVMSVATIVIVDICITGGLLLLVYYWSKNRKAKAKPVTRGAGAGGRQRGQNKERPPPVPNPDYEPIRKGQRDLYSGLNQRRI
T2 sequence (P04234 22-171, chain 2 of 3): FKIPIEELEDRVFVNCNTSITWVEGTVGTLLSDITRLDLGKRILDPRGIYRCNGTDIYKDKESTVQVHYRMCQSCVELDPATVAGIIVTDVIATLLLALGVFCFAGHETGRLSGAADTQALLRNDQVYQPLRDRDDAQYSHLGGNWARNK
T2 sequence (P09693 23-182, chain 3 of 3): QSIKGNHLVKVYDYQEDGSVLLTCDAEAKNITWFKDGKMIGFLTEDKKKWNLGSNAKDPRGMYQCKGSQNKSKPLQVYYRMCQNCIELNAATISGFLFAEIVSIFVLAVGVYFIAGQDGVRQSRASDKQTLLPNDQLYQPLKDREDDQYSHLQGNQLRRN

B1: W3278-U2T3.F18R-1.uIgG4.SP (bispecific antibody)
heavy 1: QVQLQQPGAELVKPGASVKMSCKASGYTFTSYNMHWVKQTPGRGLEWIGAIYPGNGDTSYNQKFKGKATLTADKSSSTAYMQLSSLTSEDSAVYYCARSTYYGGDWYFNVWGAGTTVTVSAASTKGPSVFPLAPCSRSTSESTAALGCLVKDYFPEPVTVSWNSGALTSGVHTFPAVLQSSGLYSLSSVVTVPSSSLGTKTYTCNVDHKPSNTKVDKRVGGGGSGGGGSQVQLVQSGAEVKKPGSSVKVSCKASGFAFTDYYIHWVRQAPGQGLEWMGWISPGNVNTKYNENFKGRVTITADKSTSTAYMELSSLRSEDTAVYYCARDGYSLYYFDYWGQGTLVTVLEDLKNVFPPEVAVFEPSEAEISHTQKATLVCLATGFYPDHVELSWWVNGKEVHSGVCTDPQPLKEQPALQDSRYALSSRLRVSATFWQNPRNHFRCQVQFYGLSENDEWTQDRAKPVTQIVSAEAWGRYGPPCPPCPAPEFLGGPSVFLFPPKPKDTLMISRTPEVTCVVVDVSQEDPEVQFNWYVDGVEVHNAKTKPREEQFNSTYRVVSVLTVLHQDWLNGKEYKCKVSNKGLPSSIEKTISKAKGQPREPQVYTLPPCQEEMTKNQVSLWCLVKGFYPSDIAVEWESNGQPENNYKTTPPVLDSDGSFFLYSRLTVDKSRWQEGNVFSCSVMHEALHNHYTQKSLSLSLG
heavy 2: QVQLQQPGAELVKPGASVKMSCKASGYTFTSYNMHWVKQTPGRGLEWIGAIYPGNGDTSYNQKFKGKATLTADKSSSTAYMQLSSLTSEDSAVYYCARSTYYGGDWYFNVWGAGTTVTVSAASTKGPSVFPLAPCSRSTSESTAALGCLVKDYFPEPVTVSWNSGALTSGVHTFPAVLQSSGLYSLSSVVTVPSSSLGTKTYTCNVDHKPSNTKVDKRVESKYGPPCPPCPAPEFLGGPSVFLFPPKPKDTLMISRTPEVTCVVVDVSQEDPEVQFNWYVDGVEVHNAKTKPREEQFNSTYRVVSVLTVLHQDWLNGKEYKCKVSNKGLPSSIEKTISKAKGQPREPQVCTLPPSQEEMTKNQVSLSCAVKGFYPSDIAVEWESNGQPENNYKTTPPVLDSDGSFFLVSRLTVDKSRWQEGNVFSCSVMHEALHNHYTQKSLSLSLG
light 1: QIVLSQSPAILSASPGEKVTMTCRASSSVSYIHWFQQKPGSSPKPWIYATSNLASGVPVRFSGSGSGTSYSLTISRVEAEDAATYYCQQWTSNPPTFGGGTKLEIKRTVAAPSVFIFPPSDEQLKSGTASVVCLLNNFYPREAKVQWKVDNALQSGNSQESVTEQDSKDSTYSLSSTLTLSKADYEKHKVYACEVTHQGLSSPVTKSFNRGEC
light 2: DIVMTQSPDSLAVSLGERATINCKSSQSLLNSRTRKNYLAWYQQKPGQPPKLLIYWASTRQSGVPDRFSGSGSGTDFTLTISSLQAEDVAVYYCTQSHTLRTFGGGTKVEIKPDIQNPDPAVYQLRDSKSSDKSVCLFTDFDSQTQVSQSKDSDVYITDKCVLDMRSMDFKSNSAVAWSQKSDFACANAFQNSIIPEDTFFPSPESS
notes: Human IgG4 S228P, knobs-into-holes; also called WBP3278 lead Ab; W3278 lead Ab
In the case of B1, in test [1], the “EC50 of CD25 expression, CD4+ T cells with Raji cells” value worked out at 0.0006 nM and the “EC50 of CD25 expression, CD8+ T cells with Raji cells” value was found to be 0.0008 nM. Besides, in test [2], the EC50 (read off the curve) – broadly, the concentration at which the effect is half-maximal – was approximately 6 nM. Further, in [3], the “EC50 of IL-2 release, CD4+ T cells with Raji cells” value came out at 0.0114 nM; the “EC50 of TNF-α release, CD4+ T cells with Raji cells” value worked out at 0.0135 nM; the “EC50 ratio IL-2 release/Raji cell killing” value worked out at 22; the “EC50 ratio TNFα release/Raji cell killing” value turned out to be 26. In addition, in test [4], the “EC50 of CD69 expression, CD4+ T cells with Raji cells” value was determined as 0.0002 nM and the “EC50 of CD69 expression, CD8+ T cells with Raji cells” value stood at 0.0004 nM. In addition, in test [5], the concentration for a half-maximal effect (EC50) (commonly the concentration that produces a half-maximal response) is 41.7 nM and the “TOP MFI” value amounted to 4080 MFI. Further, in test [6], the “cytotoxicity EC50, CD8+ T cells against NAMALWA cells (FACS)” value was 0.0468 nM; the “cytotoxicity EC50, CD8+ T cells against Raji cells (FACS)” value turned out to be 0.00052 nM; the “cytotoxicity EC50, CD8+ T cells against Ramos cells (FACS)” value stood at 0.00125 nM. The concentration for a half-maximal effect (EC50 (read off the curve)) in test [7] is approximately 6 nM. The “Biological activity (%) (EC50 of reference/EC50 of test sample; Jurkat luciferase reporter with Raji cells), lyophilized formulation, T0” value in test [8] was 114%. Also, in [9], the concentration giving a half-maximal response (EC50) came to 2.5 nM and the “TOP MFI” value came out at 66700 MFI.

B2: W3278-T3U2.F16-1.uIgG4.SP (bispecific antibody)
heavy 1: QVQLVQSGAEVKKPGSSVKVSCKASGFAFTDYYIHWVRQAPGQGLEWMGWISPGNVNTKYNENFKGRVTITADKSTSTAYMELSSLRSEDTAVYYCARDGYSLYYFDYWGQGTLVTVLEDLKNVFPPEVAVFEPSEAEISHTQKATLVCLATGFYPDHVELSWWVNGKEVHSGVCTDPQPLKEQPALQDSRYALSSRLRVSATFWQNPRNHFRCQVQFYGLSENDEWTQDRAKPVTQIVSAEAWGRYGPPCPPCPAPEFLGGPSVFLFPPKPKDTLMISRTPEVTCVVVDVSQEDPEVQFNWYVDGVEVHNAKTKPREEQFNSTYRVVSVLTVLHQDWLNGKEYKCKVSNKGLPSSIEKTISKAKGQPREPQVYTLPPCQEEMTKNQVSLWCLVKGFYPSDIAVEWESNGQPENNYKTTPPVLDSDGSFFLYSRLTVDKSRWQEGNVFSCSVMHEALHNHYTQKSLSLSLG
heavy 2: QVQLQQPGAELVKPGASVKMSCKASGYTFTSYNMHWVKQTPGRGLEWIGAIYPGNGDTSYNQKFKGKATLTADKSSSTAYMQLSSLTSEDSAVYYCARSTYYGGDWYFNVWGAGTTVTVSAASTKGPSVFPLAPCSRSTSESTAALGCLVKDYFPEPVTVSWNSGALTSGVHTFPAVLQSSGLYSLSSVVTVPSSSLGTKTYTCNVDHKPSNTKVDKRVGGGGSGGGGSQVQLQQPGAELVKPGASVKMSCKASGYTFTSYNMHWVKQTPGRGLEWIGAIYPGNGDTSYNQKFKGKATLTADKSSSTAYMQLSSLTSEDSAVYYCARSTYYGGDWYFNVWGAGTTVTVSAASTKGPSVFPLAPCSRSTSESTAALGCLVKDYFPEPVTVSWNSGALTSGVHTFPAVLQSSGLYSLSSVVTVPSSSLGTKTYTCNVDHKPSNTKVDKRVESKYGPPCPPCPAPEFLGGPSVFLFPPKPKDTLMISRTPEVTCVVVDVSQEDPEVQFNWYVDGVEVHNAKTKPREEQFNSTYRVVSVLTVLHQDWLNGKEYKCKVSNKGLPSSIEKTISKAKGQPREPQVCTLPPSQEEMTKNQVSLSCAVKGFYPSDIAVEWESNGQPENNYKTTPPVLDSDGSFFLVSRLTVDKSRWQEGNVFSCSVMHEALHNHYTQKSLSLSLG
light 1: B1 light 2
light 2: B1 light 1
notes: Human IgG4 S228P, knobs-into-holes; also called W3278 BsAb; WBP3278 BsAb
For B2, in test [5], the concentration giving a half-maximal response (EC50) is 58.9 nM and the “TOP MFI” value was found to be 6750 MFI. For the same molecule, in test [9], the EC50 was more than 1000 nM and the “TOP MFI” value is 55200 MFI.
